Article PMC7244511, “Phosphoproteomics identifies dual-site phosphorylation in an extended basophilic motif regulating FILIP1-mediated degradation of filamin-C” (Communications Biology, 2020)

T1: FILIP1 CT-GFP (expressed in HEK293 cells) (UniProt Q7Z7B0-2 776-1177)
T1 construct: FILIP1 carboxy-terminus (CT); also called FILIP1-GFP CT; wild-type FILIP1 CT-GFP; source: HEK293 (HEK293T), transfected, in lysate
T1 sequence (looked up): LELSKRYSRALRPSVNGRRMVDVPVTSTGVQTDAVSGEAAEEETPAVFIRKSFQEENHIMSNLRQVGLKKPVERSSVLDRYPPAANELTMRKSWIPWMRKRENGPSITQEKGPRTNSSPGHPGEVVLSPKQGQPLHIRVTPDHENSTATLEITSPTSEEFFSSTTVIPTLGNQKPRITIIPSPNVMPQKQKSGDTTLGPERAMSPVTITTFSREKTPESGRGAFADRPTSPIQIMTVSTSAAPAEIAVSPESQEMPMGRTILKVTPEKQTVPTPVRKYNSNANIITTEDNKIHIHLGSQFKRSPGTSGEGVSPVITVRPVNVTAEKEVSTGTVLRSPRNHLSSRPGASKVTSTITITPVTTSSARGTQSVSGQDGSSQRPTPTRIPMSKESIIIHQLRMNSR


Key:
[1] = molecular target: FILIP1 (filamin A-interacting protein 1), carboxy-terminus (CT) carboxy-terminus (CT) (UniProt Q7Z7B0); test: co-immunoprecipitation, quantitative immunoblot; settings: reference: wild type; sites S2233,S2236
[2] = molecular target: FILIP1 (filamin A-interacting protein 1), carboxy-terminus (CT) carboxy-terminus (CT) (UniProt Q7Z7B0); test: anti-Myc co-immunoprecipitation, quantitative immunoblot; settings: reference: wild type; sites S2233,S2236
[3] = molecular target: T1, FILIP1 CT-GFP (expressed in HEK293 …); test: fluorescence correlation spectroscopy (competition); recombinant FLNc d19–21 (44,000 to 21 nM) or its DD mutant (60,000 to 78 nM) titrated to HEK293T lysate with FILIP1 CT-GFP bound to Myc-hFLNc d18–21 DD; PBS pH 7.4, 0.05% Tween-20, 20 °C; settings: one partner purified

binding against the reference [1]	binding against the reference [2]	Kd [3]	Molecule
stronger	stronger		human filamin-C (hFLNc) Ig-like domains 18-21 (d18–21) (from UniProt Q14315) AA (S2233A/S2236A)
		1170 nM	recombinant hFLNc d19–21, wild type (domain or fragment, human, UniProt Q14315 2036-2410, looked up, human filamin-C, Ig-like domains 19–21; also called wildtype hFLNc d19–21; non-phosphorylated hFLNc d19–21) SEIGDASKVRVWGKGLSEGHTFQVAEFIVDTRNAGYGGLGLSIEGPSKVDINCEDMEDGTCKVTYCPTEPGTYIINIKFADKHVPGSPFTVKVTGEGRMKESITRRRQAPSIATIGSTCDLNLKIPGNWFQMVSAQERLTRTFTRSSHTYTRTERTEISKTRGGETKREVRVEESTQVGGDPFPAVFGDFLGRERLGSFGSITRQQEGEASSQDMTAQVTSPSGKVEAAEIVEGEDSAYSVRFVPQEMGPHTVAVKYRGQHVPGSPFQFTVGPLGEGGAHKVRAGGTGLERGVAGVPAEFSIWTREAGAGGLSIAVEGPSKAEIAFEDRKDGSCGVSYVVQEPGDYEVSIKFNDEHIPDSPFVVPVASLSDDARR
